Source: patent US20160331821A1 (AGENUS, published 2016)
Each block holds one binder with its values, some of them ahead of it. Square brackets hold non-standard residues; d marks the D form. Ends that are not written are not given here. pS = N[C@@H](COP(=O)(O)O)C(=O)O

What was measured:
[1] = target: T1, recombinant human Hsc70 (Genbank Accession No. P11142.1) (human, UniProt P11142 1-646, limits assumed); experiment: size exclusion chromatography after incubating peptide with Hsc70 in PBS, 37 C, 1 h, 4:1 molar excess peptide:Hsc70
T1 construct: also called rhHsc70; rh-Hsc70
T1 sequence (P11142 whole entry, one chain of several): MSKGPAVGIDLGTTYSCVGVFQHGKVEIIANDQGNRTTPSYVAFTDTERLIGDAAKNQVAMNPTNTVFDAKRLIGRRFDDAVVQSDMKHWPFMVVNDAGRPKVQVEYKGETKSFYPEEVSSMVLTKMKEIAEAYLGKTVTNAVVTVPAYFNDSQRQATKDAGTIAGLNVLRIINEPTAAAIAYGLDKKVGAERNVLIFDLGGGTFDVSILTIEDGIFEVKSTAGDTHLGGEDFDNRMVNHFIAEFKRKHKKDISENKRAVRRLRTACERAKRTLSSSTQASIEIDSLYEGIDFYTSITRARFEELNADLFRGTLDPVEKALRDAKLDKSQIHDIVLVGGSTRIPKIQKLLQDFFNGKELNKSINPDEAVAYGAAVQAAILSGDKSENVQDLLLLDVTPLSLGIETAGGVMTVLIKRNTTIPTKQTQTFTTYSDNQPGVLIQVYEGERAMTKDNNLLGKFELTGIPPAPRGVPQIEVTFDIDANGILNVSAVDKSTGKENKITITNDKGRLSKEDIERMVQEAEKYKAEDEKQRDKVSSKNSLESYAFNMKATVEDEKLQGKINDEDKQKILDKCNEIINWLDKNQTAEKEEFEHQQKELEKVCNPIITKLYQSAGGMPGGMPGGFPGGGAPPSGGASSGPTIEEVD
Method: Four peptides (Table 9) containing a phosphorylated serine residue were synthesized to 95% purity (GenScript, Cambridge, Mass.). […] These peptides were individually incubated with Hsc70 in PBS at 37° C. for 1 hour at a 4:1 molar excess (peptide:Hsc70) to form non-covalent Hsc70-peptide complexes. After incubation, the complexes were analyzed by SEC to quantify the proportion of Hsc70 molecules loaded with peptide.

[2] = target: T2, recombinant human Hsc70 (Genbank Accession No. P11142.1) (Biomay AG) (human, UniProt P11142 1-646, limits assumed); experiment: size exclusion chromatography; Hsc70:peptide molar ratio 1:2, same result at 1:5
T2 construct: Resolves on SEC as a monomeric and an oligomeric form; also called rhHsc70; rh-Hsc70
T2 sequence (P11142 whole entry, one chain of several): as above
Method: Standard size exclusion chromatography was carried out using 7 μM of recombinant human Hsc70 (Genbank Accession No. P11142.1) (Biomay AG) in a reaction buffer containing 20 mM HEPES and 200 mM KCL in a final volume of 50 μl. Reactions were incubated at 37° C. for 1 or 2 hours and centrifuged 2 min at 13000 RPM. Reaction products (10 μg) were resolved on a TSKgel SuperSW3000, 4 μm particle size, 25 nm pore size gel filtration chromatography column (Tosoh Bioscience). […] The percentage of Hsc70 complexed with peptide in each reaction mixture was calculated by measuring the surface area of the appropriate peak.
The comparative effect of placing the high affinity Hsc70 binding sequence at the N- and C-terminus of the ovalbumin peptide, linked via the FFRK (SEQ ID NO:447) linker in both cases, was also tested. […] The sequence of the test peptide with the C-terminal high affinity Hsc70 binding sequence was […] (SEQ ID NO:449), and the sequence of the test peptide with N-terminal high affinity Hsc70 binding sequence was […] (SEQ ID NO:450).

B2: GLLG{pSer}PVRAFFRKNLLRLTG (CDC25 antigen phosphopeptide epitope with C-terminal FFRK linker and high affinity HSP binding sequence) (peptide)
peptide: GLLG[pS]PVRAFFRKNLLRLTG
Percentage of Hsc70 loaded with peptide [1]: 74%

B3: NLLRLTGFFRKRVA{pSer}PTSGV (IRS-2 antigen phosphopeptide epitope with N-terminal high affinity HSP binding sequence and FFRK linker) (peptide)
peptide: NLLRLTGFFRKRVA[pS]PTSGV
Percentage of Hsc70 loaded with peptide [1]: 34%

B5: NLLRLTGFFRKGLLG{pSer}PVRA (CDC25 antigen phosphopeptide epitope with N-terminal high affinity HSP binding sequence and FFRK linker) (peptide)
peptide: NLLRLTGFFRKGLLG[pS]PVRA
Percentage of Hsc70 loaded with peptide [1]: 41%

More lines, now with the values ahead:

Percentage of Hsc70 loaded with peptide [1]: 75%
B1: RVA{pSer}PTSGVFFRKNLLRLTG (IRS-2 antigen phosphopeptide epitope with C-terminal FFRK linker and high affinity HSP binding sequence) (peptide)
peptide: RVA[pS]PTSGVFFRKNLLRLTG

binding result [2]: binds
B4: chicken ovalbumin peptide SIINFEKL fused at its N-terminus via the linker FFRK to the high affinity Hsc70 binding sequence NLLRLTG (NLLRLTGFFRKSIINFEKL) (peptide)
peptide: NLLRLTGFFRKSIINFEKL
